6 molecules from patent US20170152308A1 (Biogen, published 2017) can be followed below.

Read-outs that look alike come from different tables or passages of the source. A value given as a limit tells only on which side of the number the result lay.

The target in assay [1] is T1, 6xHis-SUMO-TDP-43 (1-414), properly folded full length (human, UniProt Q13148 1-414).
T1 construct: Purified with KSCN and arginine, monomeric; captured on the plate by an anti-6xHis antibody; also called folded full-length TDP-43; 6xHis/SUMO tagged full length TDP-43; not shown: N-terminal 6xHis and SUMO tags from a modified pET19-b vector
T1 sequence (Q13148 whole entry): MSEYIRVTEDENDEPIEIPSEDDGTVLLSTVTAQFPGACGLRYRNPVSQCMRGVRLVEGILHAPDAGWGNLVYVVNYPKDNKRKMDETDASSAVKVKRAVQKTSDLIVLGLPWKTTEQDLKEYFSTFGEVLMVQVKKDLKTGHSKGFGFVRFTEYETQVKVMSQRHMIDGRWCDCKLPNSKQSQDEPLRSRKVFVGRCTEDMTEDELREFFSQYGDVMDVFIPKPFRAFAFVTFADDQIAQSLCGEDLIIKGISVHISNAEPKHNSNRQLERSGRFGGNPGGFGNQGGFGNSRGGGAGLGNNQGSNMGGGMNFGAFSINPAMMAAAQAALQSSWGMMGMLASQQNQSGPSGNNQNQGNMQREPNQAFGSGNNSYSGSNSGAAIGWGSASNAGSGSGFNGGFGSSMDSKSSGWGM
As to the kind of experiment: capture ELISA, antigen held by anti-6xHis antibody. Here is the method:
(§1) Non-specific binding sites were blocked for 1 hr at RT with PBS containing 1% BSA (Sigma) and 0.05% Tween-20 (Fisher Scientific). 6×His-SUMO-TDP43 proteins at a concentration of 1.7 μM were allowed to bind to antibody-coated plates for 1 hr at RT in PBS buffer containing 1% BSA, 300 mM arginine and 0.1% PEG 5000, pH 7.5. Plates were incubated for 1 hr at RT with human antibodies of present invention, titrated in a three-fold dilution series, followed by HRP conjugated anti-human IgG Fc γ (Jackson ImmunoResearch) in PBST containing 1% BSA. HRP activity was measured in a standard colorimetric assay. EC₅₀ values were calculated using a four-parameter logistic curve fit on Softmax pro software (Molecular Devices).
(§2) We measured the binding affinity of the human-derived TDP-43 specific antibodies provided herein to properly folded 6×His/SUMO tagged TDP-43 using a capture ELISA in which native TDP-43 was immobilized without direct adsorption on the surface of the ELISA plate. This was achieved by immobilizing an anti 6×His antibody which then captured native TDP-43. […] After this immobilization step, binding by human antibodies was tested in regular buffers without interference of TDP-43 aggregation.
For orientation: ELISA stands for enzyme-linked immunosorbent assay.

Assay [2] has as its target T2, recombinant full-length His-tagged human TDP-43 (2-414) (human, UniProt Q13148 2-414).
T2 construct: Amino terminal His tag, made in E. coli, purified in 8 M urea; also called full length TDP-43; full-length TDP-43
As to the kind of experiment: direct ELISA, coated antigen. As for the experimental part: (§3) The half maximal effective concentration (EC₅₀) of the human-derived TDP-43-specific antibodies for human TDP-43 and their target target-specificity was determined substantially as described in Example 2 above. Briefly, 96 well microplates (Corning) were coated with recombinant full length TDP-43 (Biogen Idec, USA), Escherichia coli extract and BSA (Sigma, Buchs, Switzerland), diluted to a concentration of 5 μg/ml in carbonate ELISA coating buffer (pH 9.6) overnight at 4° C. […] Non-specific binding sites were blocked for 1 hr. at room temperature with PBS containing 2% BSA (Sigma, Buchs, Switzerland). Human TDP-43-specific antibodies were diluted to the indicated concentrations and incubated 1 hr. at room temperature. Binding was determined using a donkey anti-human IgGγ-specific secondary antibody conjugated with HRP (Jackson ImmunoResearch, USA), followed by measurement of HRP activity in a standard colorimetric assay. EC₅₀ values were estimated by a non-linear regression using GraphPad Prism software (San Diego, USA).

Assay [3] concerns the target T3, TDP-43 in human FTLD-U (and ALS) patient tissue sections (human, UniProt Q13148 1-414, limits assumed).
T3 construct: Target of immunohistochemistry; the forms present are not defined; also called pathologic TDP-43; cytoplasmic, nuclear, neuritic TDP-43 in FTLD-U case tissue
As to the kind of experiment: immunohistochemistry, FTLD-U case hippocampus.

Assay [4] deals with T4, 6xHis-SUMO-TDP-43 (220-414) (human, UniProt Q13148 220-414).
T4 construct: Captured on the plate by an anti-6xHis antibody; also called 6xHis/SUMO tagged truncated TDP-43; not shown: N-terminal 6xHis and SUMO tags from a modified pET19-b vector
T4 sequence (Q13148 220-414): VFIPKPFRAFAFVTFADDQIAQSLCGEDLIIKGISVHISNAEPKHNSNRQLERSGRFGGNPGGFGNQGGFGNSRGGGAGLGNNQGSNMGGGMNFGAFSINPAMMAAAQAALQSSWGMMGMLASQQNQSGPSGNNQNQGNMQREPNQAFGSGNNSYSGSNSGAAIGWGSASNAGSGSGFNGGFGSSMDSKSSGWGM
As to the kind of experiment: capture ELISA, antigen held by anti-6xHis antibody. Here is the method:
as §1, §2

Assay [5] deals with T5, His-huTDP-43 domain I (amino acid residues 2-106) (human).
T5 construct: Amino terminal His-tagged fragment, E. coli; also called N-terminal domain
T5 chain: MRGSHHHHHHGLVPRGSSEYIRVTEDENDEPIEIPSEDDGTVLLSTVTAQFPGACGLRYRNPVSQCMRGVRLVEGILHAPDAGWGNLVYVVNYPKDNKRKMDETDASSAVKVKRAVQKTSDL
As to the kind of experiment: direct ELISA, TDP-43 fragments coated at 6.6 ug/ml, OD 450. Here is the method: (§4) Non-specific binding sites were blocked for 1 hr. at room temperature with PBST containing 2% BSA (Sigma, Buchs, Switzerland). Antibodies were incubated 1 hr. at room temperature. Binding was determined using either a donkey anti-human IgGγ-specific antibody conjugated with HRP (Jackson ImmunoResearch, USA) or a goat-anti mouse IgG (H+L)-specific secondary antibody conjugated with HRP (Jackson ImmunoResearch, USA)., followed by measurement of HRP activity in a standard colorimetric assay.

Assay [6] addresses T6, His-huTDP-43 domain II (amino acid residues 99-204) (human).
T6 construct: Amino terminal His-tagged fragment, E. coli
T6 chain: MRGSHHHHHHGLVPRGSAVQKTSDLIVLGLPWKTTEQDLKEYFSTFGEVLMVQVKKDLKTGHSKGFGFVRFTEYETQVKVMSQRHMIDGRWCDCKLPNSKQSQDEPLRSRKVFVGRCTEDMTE
The description is as above. As for the experimental part:
as §4

Assay [7] has as its target T7, His-huTDP-43 domain III (amino acid residues 183-273) (human).
T7 construct: Amino terminal His-tagged fragment, E. coli
T7 chain: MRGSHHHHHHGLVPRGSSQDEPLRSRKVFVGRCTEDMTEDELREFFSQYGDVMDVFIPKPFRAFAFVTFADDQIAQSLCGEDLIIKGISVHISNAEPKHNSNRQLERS
Described as above. Here is the method:
as §4

Assay [8] concerns the target T6, His-huTDP-43 domain II (amino acid …). As to the kind of experiment: direct ELISA, coated antigen.
The target of assay [9] is T8, His-huTDP-43 domain IV (amino acid residues 258-414) (human, UniProt Q13148 258-414).
T8 construct: Amino terminal His-tagged fragment, E. coli, solubilized in 8 M urea; also called Glycine-rich domain
T8 sequence (Q13148 other isoform, or with tags, fused parts or gaps limits assumed): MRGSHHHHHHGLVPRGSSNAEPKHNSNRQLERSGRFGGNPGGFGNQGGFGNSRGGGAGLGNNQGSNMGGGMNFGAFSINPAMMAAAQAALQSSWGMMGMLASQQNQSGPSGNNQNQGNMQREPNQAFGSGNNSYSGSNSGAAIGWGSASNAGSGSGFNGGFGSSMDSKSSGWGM
As to the kind of experiment: direct ELISA, TDP-43 fragments coated at 6.6 ug/ml, OD 450. As for the experimental part: as §4

Assay [10] addresses T8, His-huTDP-43 domain IV (amino acid …). As to the kind of experiment: Western blot, 300 ng recombinant protein per lane, primary antibody 10 nM. Here is the method:
(§5) Non-specific binding sites were blocked for 1 hr. at room temperature with PBST containing 2% BSA (Sigma, Buchs, Switzerland). Blots were incubated overnight with primary antibodies (10 nM) followed by either a donkey anti-human IgGγ-specific secondary antibody conjugated with HRP (Jackson ImmunoResearch, USA) or a goat-anti mouse IgG (H+L)-specific secondary antibody conjugated with HRP (Jackson ImmunoResearch, USA). Blots were developed using ECL and ImageQuant 350 detection (GE Healthcare, Otelfingen, Switzerland).
For orientation: Immunoblotting shows a protein as a band on a membrane.

Assay [11] concerns the target T7, His-huTDP-43 domain III (amino acid …). The assay is described as above. As for the experimental part:
as §5

The target in assay [12] is T8, His-huTDP-43 domain IV (amino acid …). As to the kind of experiment: Western blot. Here is the method: as §5
(§6) Commercially available TDP-43 specific antibody TARDBP (M01), clone 2E2-D3 (Abnova, Taiwan) was used as positive control for human TDP-43 detection whereas, an anti-human IgG Fcγ-specific antibody was used as a negative control. Binding of the human-derived antibodies to specific TDP-43 domains was determined by Western Blot analysis.

For assay [13], the target named is T5, His-huTDP-43 domain I (amino acid …). The experiment in a line: Western blot. As for the experimental part: as §5, §6
Assay [14] deals with T6, His-huTDP-43 domain II (amino acid …). The experiment in a line: Western blot. As for the experimental part:
as §5, §6

Assay [15] deals with T7, His-huTDP-43 domain III (amino acid …). The experiment in a line: Western blot. As for the experimental part: as §5, §6
For assay [16], the target named is T2, recombinant full-length His-tagged …. As to the kind of experiment: direct ELISA, coated antigen. Here is the method: as §3
The source holds these as a separate data set.

T3 sequence (Q13148 whole entry): as the sequence (Q13148 whole entry) above

B1: NI-205.58E11 (antibody, human IgG1, V domains shown)
VH: EVQLLESGGGLVQPGGSLRLSCAASGFTFSSYSMSWVRQAPGKGLEWVATVGYGGTIYYADSVKGRFTISRDNSKNTLYLEMNSLRAEATAVYYCAKANYGGNRFGLDVWGQGTTVTVSS
VL: QSALTQPPSASGSPGQSVTISCTGTSSDVGGYNYVSWYQHQPGKAPKLMIYEVSKRPSGVPDRFSGSKSGNTASLTVSGLQAEDEADYYCSSYAGSNNLGVFGTGTEVTVL
notes: Human-derived
As to B1, the binding result is “no binding” in assay [1], “no binding” in assay [2] and “no binding (tested: 50 nM)” in [3].

B2: NI-205.44B2 (antibody, human IgG1, V domains shown)
VH: QVQLQESGPGVVKPSQTLSLTCTVSGVSVGSGDYYWSWIRHHPGKGLEWIGYISFFGSSNYNPSLKGRVSMSVDTSNNQFSLNLKSVTAADTAVYFCATGNAYSFWGQGTMVTVSS
VL: QSALTQPASVSGSPGQSITISCTGTSSDIGTHNLVSWYQQHPGKAPKLIIYEIFERPSGISSRFTGSKSGNTASLTISGLQAEDEADYFCCAYSVTVIFGGGTKLTVL
notes: Human-derived; also called NI205.44B22
As for B2, the half-maximal effective concentration (EC50) was 33.5 nM in [4], greater than 125 nM in assay [1] and 2.8 nM in assay [2]. Moreover, the binding result in assay [5], in assay [6] and in assay [7] was “no binding” in each case.

B3: NI-205.1A9 (antibody, human IgG1, V domains shown)
VH: QVQLVQSGSELKKPGASVKVSCKASGYTFTSYAMNWVRQAPGQGLEWMGWINTNTGNPTYAQGFTGRFVFSLDTSVSTAYLQISSLKAEDTAVYYCARDRIDGSSWSSWFDPWGQGTLVTVSS
VL: QSVLTQPPSVSGAPGQRVTISCTGSSSNIGAGYDVHWYQQLPGTAPKLLIYGNSNRPSGVPDRFSGSKSGTSASLAITGLQAEDEADYYCQSFDSSLSSSVFGGGTKLTVL
notes: Human-derived
Consider B3, for which the binding result was “binds” in assay [8]; “no binding” in assay [4]; “no binding” in [9]; “no binding” in assay [5]; “no binding” in [7]. Also, the EC50 was greater than 98 nM in assay [1] and 1 nM in assay [2].

B4: NI-205.31C11 (antibody, human IgG1, V domains shown)
VH: QVQLVESGGGVVQPGRSLRLSCVASGFTFDNYGMHWVRQAPGKGLEWLAVISYGGDHQFYGDSVKDRFTISRDNSKNTAYLQMHSLRPDDTAVYYCATGVTPDFWGQGTLVTVSS
VL: DVVMTQSPLSLPVTLGQPASISCRSSQSLVHSDGNTYLNWFQQRPGQSPRRLIYKVSHRDSGVPDRFSGSGSGTDFTLKISRVEAEDVGVYYCLQGTHWPPFTFGQGTKLEIK
notes: Human-derived
B4: the binding result is “binds” in [8]; “no binding” in assay [4]; “no binding” in assay [5]; “no binding (tested: 10 nM)” in assay [10]; “no binding (tested: 10 nM)” in assay [11]. Also, the EC50 in [1] was 21.1 nM; in assay [2], 11 nM.

B5: NI-205.20A1 (antibody, V domains shown)
VH: EVQLVESGGGLVQPGGSLRLSCAASGFTFSSYRMNWVRQAPGKGLEWVSYISTSSSTIYYADSVKGRFTISRDNAKNSLYLQMNSLRAEDTAVYYCARAFDYWGQGTLVTVSS
VL: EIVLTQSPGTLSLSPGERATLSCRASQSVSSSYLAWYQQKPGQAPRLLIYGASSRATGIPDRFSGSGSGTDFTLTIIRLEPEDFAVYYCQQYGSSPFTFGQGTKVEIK
notes: Human-derived
Regarding B5, the binding result in assay [1] is on record as “no binding”; in assay [2] it was “no binding”; in assay [3] it was “no binding (tested: 50 nM)”; in assay [12], “no binding (tested: 10 nM)”; in assay [13] it was “no binding (tested: 10 nM)”; in assay [14], “no binding (tested: 10 nM)”. In addition, in [15], the binding result is on record as “no binding (tested: 10 nM)”.

B6: NI-205.68G5 (antibody, human IgG1, V domains shown)
VH: QVQLVESGGGVVQPGRSLRLSCAASGFTFSSYGMHWVRQAPGKGLEWVAIIYYDSSQRYYADSVKGRFTISRDNSKNALYLQMNSLRAEDTALYYCARDLPFHYHRSASFAPSDTWGQGTLVTVSS
VL: EIVLTQSPGTLSLSPGERATLSCRASQAVTNNYLAWYQQKPGQAPRLLVYAASSRATGIPDRFYGSGSGADFTLTISRLEPEDFAVYYCQQYGTSPITFGQGTRLEIK
notes: Human-derived
With B6, the EC50 in [16] and in assay [2] was greater than 100 nM throughout. For the same molecule, the binding result in assay [12], in assay [13], in assay [14] and in [15] was “no binding (tested: 10 nM)” in each case.

Usually EC50 stands for the concentration at which the effect is half-maximal.
